Data published in article doi:10.1101/2024.10.12.618001, “High yield purification of an Isoleucine zipper modified CD95 Ligand with either biotin or DNA-oligomer binding domain for efficient Cell Apoptosis Induction” (bioRxiv, 2024).
Several values for one entry are separate records, joined by “and”; a condition that tells them apart may be missing. Equal values may be shown once.

T1: soluble CD95L (Enzo Life Sciences) (UniProt P48023 130-281)
T1 construct: soluble CD95 ligand (CD95L, Fas ligand); The conclusion calls it the unmodified CD95L; also called sCD95L; source: bought: Enzo Life Sciences
T1 sequence (looked up): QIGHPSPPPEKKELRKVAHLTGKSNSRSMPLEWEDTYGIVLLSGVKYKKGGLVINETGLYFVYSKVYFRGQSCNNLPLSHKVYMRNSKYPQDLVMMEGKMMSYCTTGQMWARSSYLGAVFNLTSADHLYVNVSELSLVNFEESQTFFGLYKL

B1: CD95L-IZ-biotin (CD95L-IZ after His-tag cleavage, biotinylated at the extra cysteine) (ligand)
chain: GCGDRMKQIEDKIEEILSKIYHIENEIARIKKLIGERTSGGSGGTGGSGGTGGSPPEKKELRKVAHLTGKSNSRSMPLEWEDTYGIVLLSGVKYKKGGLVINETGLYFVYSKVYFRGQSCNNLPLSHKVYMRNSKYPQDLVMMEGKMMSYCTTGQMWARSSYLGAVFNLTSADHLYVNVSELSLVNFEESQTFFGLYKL
modifications: biotin (biotin-C5-maleimide) on the extra cysteine; glycosylated
notes: What is left after TEV cleavage: Gly, extra cysteine, isoleucine zipper (IZ) and linker; CD95 ligand (CD95L, Fas ligand, CD178, TNFSF6), human, extracellular domain, amino acids 137-281; also called CD95L-IZ-X; source: HEK293T, transient transfection, secreted; purified (anti-His-tag antibody agarose beads), His-tag cut with TEV protease, labelled with biotin-C5-maleimide; not shown: His8, …
B2: CD95-His receptor protein (Sino Biological) (receptor, UniProt P25445 26-173, looked up)
chain: QVTDINSKGLELRKTVTTVETQNLEGLHHDGQFCHKPCPPGERKARDCTVNGDEPDCVPCQEGKEYTDKAHFSSKCRRCRLCDEGHGLEVEINCTRTQNTKCRCKPNFFCNSTVCEHCDPCTKCEHGIIKECTLTSNTKCKEEGSRSN
notes: CD95 (Fas, Apo-1) receptor protein with His-tag; also called Fas; Apo-1; source: bought: Sino Biological
B3: CD95L-IZ-His (His8-TEV-Cys-IZ-CD95L (137-281), secreted form) (ligand)
chain: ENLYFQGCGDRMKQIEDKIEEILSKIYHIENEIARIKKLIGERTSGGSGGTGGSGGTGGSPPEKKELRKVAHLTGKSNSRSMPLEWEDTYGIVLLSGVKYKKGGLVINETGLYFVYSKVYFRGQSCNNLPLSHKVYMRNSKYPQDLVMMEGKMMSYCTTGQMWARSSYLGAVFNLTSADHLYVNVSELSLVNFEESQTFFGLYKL
modifications: glycosylated (the paper suggests three to five N-glycans)
notes: TEV protease site ENLYFQ, extra cysteine, isoleucine zipper (IZ, variant of the GCN4 leucine zipper) and linker; CD95 ligand (CD95L, Fas ligand, CD178, TNFSF6), human, extracellular domain, amino acids 137-281; The natural CD95L part is fused to a designed trimerisation motif; also called CD95L-IZ with His-tag; CD95-IZ-His; source: HEK293T, transient transfection (PEI), secreted into the medium; …

Experiments:
[1] = molecular target: B2; experiment: ELISA; CD95-His coated at 2 µg/ml in PBS overnight at 4 °C; ligand 0.1-100 nM in 0.5 % BSA/PBST, 2 h at r.t.; detected with anti-CD95L antibody and HRP secondary; 4-parameter logistic fit; settings: both partners purified
[2] = molecular target: T1, soluble CD95L (Enzo Life Sciences); experiment: as above; settings: both partners purified
[3] = molecular target: the molecule itself; experiment: SEC; Superdex 75 10/300 GL, PBS pH 7.4, 0.3 ml/min; 350 µl CD95L-IZ-His at 0.409 mg/ml; protein standard mix for sizes; curve fitted with three Gaussians

Binder: B1
Kd [1]: 0.68 nM

Binder: B2
Kd [2]: 11.3 nM

Binder: B3
stoichiometry N [3]: 3 and 2
